Laboratory results: the supplement of paper PMC5998384

How the values were obtained:
HeLa Kyoto [1] = assay: thermal stability score vs G1/S (z-score of summed log2 fold changes over temperatures); higher = more thermally stable than in G1/S
HeLa Kyoto [2] = assay: melting temperature (median over replicates), in situ; higher = more thermally stable
HeLa Kyoto [3] = assay: solubility change mitosis vs G1/S (difference of NP-40 vs SDS log2 ratios) (log2 ratio difference); higher = more soluble in mitosis
HeLa Kyoto [4] = assay: solubility in G1/S (NP-40 vs SDS abundance) (log2 ratio); higher = more soluble; settings: cell cycle stage: G1/S
[5] = cell cycle stage: early G1 (4.5 h after nocodazole release)
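Wherever melting temperature (median over replicates), in situ is given: HeLa Kyoto cells synchronized by double thymidine or nocodazole block, proteins quantified by TMT10plex mass spectrometry, three independent biological replicates.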
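Wherever solubility change mitosis vs G1/S (difference of NP-40 vs SDS log2 ratios) is given: synchronized HeLa Kyoto cells (double thymidine block for G1/S, nocodazole release for mitosis), protein amounts in NP-40 versus SDS lysates quantified by mass spectrometry, three biological replicates.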
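Wherever solubility in G1/S (NP-40 vs SDS abundance) is given: HeLa Kyoto cells arrested at G1/S by double thymidine block, proteins quantified by TMT10plex mass spectrometry in mild NP-40 versus SDS extracts, three biological replicates.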
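Wherever thermal stability score vs G1/S (z-score of summed log2 fold changes over temperatures) is given: synchronized HeLa Kyoto cells, proteins quantified by TMT10plex mass spectrometry, three biological replicates, mitosis taken 0.5 h after nocodazole release, G1/S directly after double thymidine block.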

| Sequence | thermal stability score (HeLa Kyoto [1]; [5]) | thermal stability score (HeLa Kyoto [1]; cell cycle stage: mitosis) | melting temperature (HeLa Kyoto [2]; cell cycle stage: G1/S) [°C] | melting temperature (HeLa Kyoto [2]; cell cycle stage: mitosis) [°C] | solubility change mitosis (log2) (HeLa Kyoto [3]) | solubility in G1/S (log2) (HeLa Kyoto [4]) |
| --- | --- | --- | --- | --- | --- | --- |
| MAVARAALGPLVTGLYDVQAFKFGDFVLKSGLSSPIYIDLRGIVSRPRLLSQVADILFQTAQNAGISFDTVCGVPYTALPLATVICSTNQIPMLIRRKETKDYGTKRLVEGTINPGETCLIIEDVVTSGSSVLETVEVLQKEGLKVTDAIVLLDREQGGKDKLQAHGIRLHSVCTLSKMLEILEQQKKVDAETVGRVKRFIQENVFVAANHNGSPLSIKEAPKELSFGARAELPRIHPVASKLLRLMQKKETNLCLSADVSLARELLQLADALGPSICMLKTHVDILNDFTLDVMKELITLAKCHEFLIFEDRKFADIGNTVKKQYEGGIFKIASWADLVNAHVVPGSGVVKGLQEVGLPLHRGCLLIAEMSSTGSLATGDYTRAAVRMAEEHSEFVVGFISGSRVSMKPEFLHLTPGVQLEAGGDNLGQQYNSPQEVIGKRGSDIIIVGRGIISAADRLEAAEMYRKAAWEAYLSRLGV [UMPS] | -0.259 | -1.37 | 53.9 | 53 | -0.08 | 0.169 |
| MAVEDSTLQVVVRVRPPTPRELDSQRRPVVQVVDERVLVFNPEEPDGGFPGLKWGGTHDGPKKKGKDLTFVFDRVFGEAATQQDVFQHTTHSVLDSFLQGYNCSVFAYGATGAGKTHTMLGREGDPGIMYLTTVELYRRLEARQQEKHFEVLISYQEVYNEQIHDLLEPKGPLAIREDPDKGVVVQGLSFHQPASAEQLLEILTRGNRNRTQHPTDANATSSRSHAIFQIFVKQQDRVPGLTQAVQVAKMSLIDLAGSERASSTHAKGERLREGANINRSLLALINVLNALADAKGRKTHVPYRDSKLTRLLKDSLGGNCRTVMIAAISPSSLTYEDTYNTLKYADRAKEIRLSLKSNVTSLDCHISQYATICQQLQAEVAALRKKLQVYEGGGQPPPQDLPGSPKSGPPPEHQPCTPELPAGPRALQEESLGMEAQVERAMEGNSSDQEQSPEDEDEGPAEEVPTQMPEQNPTHALPESPRLTLQPKPVVGHFSARELDGDRSKQLALKVLCVAQRQYSLLQAANLLTPDMITEFETLQQLVQEEKIEPGAEALRTSGLARGAPLAQELCSESIPVPSPLCPEPPGYTGPVTRTMARRLSGPLHTLGIPPGPNCTPAQGSRWPMEKKRRRPSALEADSPMAPKRGTKRQRQSFLPCLRRGSLPDTQPSQGPSTPKGERASSPCHSPRVCPATVIKSRVPLGPSAMQNCSTPLALPTRDLNATFDLSEEPPSKPSFHECIGWDKIPQELSRLDQPFIPRAPVPLFTMKGPKPTSSLPGTSACKKKRVASSSVSHGRSRIARLPSSTLKRPAGPLVLPELPLSPLCPSNRRNGKDLIRVGRALSAGNGVTKVS [KIF18B] | 1.28 | 1.04 | – | 49.3 | 0.37 | -0.336 |
| MAVELGVLLVRPRPGTGLGRVMRTLLLVLWLATRGSALYFHIGETEKKCFIEEIPDETMVIGNYRTQLYDKQREEYQPATPGLGMFVEVKDPEDKVILARQYGSEGRFTFTSHTPGEHQICLHSNSTKFSLFAGGMLRVHLDIQVGEHANDYAEIAAKDKLSELQLRVRQLVEQVEQIQKEQNYQRWREERFRQTSESTNQRVLWWSILQTLILVAIGVWQMRHLKSFFEAKKLV [TMED9] | 1.59 | 1.3 | 55.7 | 56.7 | 0.0692 | 0.375 |
| MAVKKIAIFGATGQTGLTTLAQAVQAGYEVTVLVRDSSRLPSEGPRPAHVVVGDVLQAADVDKTVAGQDAVIVLLGTRNDLSPTTVMSEGARNIVAAMKAHGVDKVVACTSAFLLWDPTKVPPRLQAVTDDHIRMHKVLRESGLKYVAVMPPHIGDQPLTGAYTVTLDGRGPSRVISKHDLGHFMLRCLTTDEYDGHSTYPSHQYQ [BLVRB] | 4.14 | 2.47 | 50.4 | 50.7 | -0.116 | 0.417 |
| MAVKVQTTKRGDPHELRNIFLQYASTEVDGERYMTPEDFVQRYLGLYNDPNSNPKIVQLLAGVADQTKDGLISYQEFLAFESVLCAPDSMFIVAFQLFDKSGNGEVTFENVKEIFGQTIIHHHIPFNWDCEFIRLHFGHNRKKHLNYTEFTQFLQELQLEHARQAFALKDKSKSGMISGLDFSDIMVTIRSHMLTPFVEENLVSAAGGSISHQVSFSYFNAFNSLLNNMELVRKIYSTLAGTRKDVEVTKEEFAQSAIRYGQVTPLEIDILYQLADLYNASGRLTLADIERIAPLAEGALPYNLAELQRQQSPGLGRPIWLQIAESAYRFTLGSVAGAVGATAVYPIDLVKTRMQNQRGSGSVVGELMYKNSFDCFKKVLRYEGFFGLYRGLIPQLIGVAPEKAIKLTVNDFVRDKFTRRDGSVPLPAEVLAGGCAGGSQVIFTNPLEIVKIRLQVAGEITTGPRVSALNVLRDLGIFGLYKGAKACFLRDIPFSAIYFPVYAHCKLLLADENGHVGGLNLLAAGAMAGVPAASLVTPADVIKTRLQVAARAGQTTYSGVIDCFRKILREEGPSAFWKGTAARVFRSSPQFGVTLVTYELLQRWFYIDFGGLKPAGSEPTPKSRIADLPPANPDHIGGYRLATATFAGIENKFGLYLPKFKSPSVAVVQPKAAVAATQ [SLC25A12] | -0.889 | -1.22 | 56 | 57.1 | -0.128 | -0.00588 |
| MAVNVYSTSVTSDNLSRHDMLAWINESLQLNLTKIEQLCSGAAYCQFMDMLFPGSIALKKVKFQAKLEHEYIQNFKILQAGFKRMGVDKIIPVDKLVKGKFQDNFEFVQWFKKFFDANYDGKDYDPVAARQGQETAVAPSLVAPALNKPKKPLTSSSAAPQRPISTQRTAAAPKAGPGVVRKNPGVGNGDDEAAELMQQVNVLKLTVEDLEKERDFYFGKLRNIELICQENEGENDPVLQRIVDILYATDEGFVIPDEGGPQEEQEEY [MAPRE1] | -0.163 | -0.675 | 50.8 | 51.2 | 0.204 | 0.394 |
